Test in all cases: EMSA
For data set [1], the target named is T1, RPA-wt (RPA70/RPA32/RPA14 heterotrimer) (human, UniProt P27694;P15927;P35244 1-616;1-270;1-121).
Data set [2] concerns the target T1, RPA-wt (RPA70/RPA32/RPA14 heterotrimer). The source holds these as a separate data set.
Data set [3] concerns the target T2, WRN-E84A (exonuclease-deficient) (human, UniProt Q14191 1-1432, E84A).
Data set [4] deals with T2, WRN-E84A (exonuclease-deficient). The source holds these as a separate data set.
Data set [5] deals with T1, RPA-wt (RPA70/RPA32/RPA14 heterotrimer). The source holds these as a separate data set.

Like-named read-outs stand apart in the source and are kept apart here.

T1 sequence (P27694 whole entry, chain 1 of 3): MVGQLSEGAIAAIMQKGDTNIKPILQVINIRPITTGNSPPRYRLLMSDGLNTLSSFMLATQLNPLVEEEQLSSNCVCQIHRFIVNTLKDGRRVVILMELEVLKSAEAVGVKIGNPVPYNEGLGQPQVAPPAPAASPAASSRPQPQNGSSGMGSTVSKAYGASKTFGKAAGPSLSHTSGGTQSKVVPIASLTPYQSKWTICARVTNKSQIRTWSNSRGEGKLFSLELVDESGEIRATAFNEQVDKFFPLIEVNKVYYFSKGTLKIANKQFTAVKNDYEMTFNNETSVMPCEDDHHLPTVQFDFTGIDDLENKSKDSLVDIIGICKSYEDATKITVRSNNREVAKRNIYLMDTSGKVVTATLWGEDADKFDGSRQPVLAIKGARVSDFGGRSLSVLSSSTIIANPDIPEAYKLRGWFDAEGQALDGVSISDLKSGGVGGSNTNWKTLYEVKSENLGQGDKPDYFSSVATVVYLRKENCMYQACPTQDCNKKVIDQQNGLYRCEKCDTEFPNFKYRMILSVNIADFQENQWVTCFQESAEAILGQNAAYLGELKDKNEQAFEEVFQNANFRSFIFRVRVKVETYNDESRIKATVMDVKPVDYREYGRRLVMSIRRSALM
T1 sequence (P15927 whole entry, chain 2 of 3): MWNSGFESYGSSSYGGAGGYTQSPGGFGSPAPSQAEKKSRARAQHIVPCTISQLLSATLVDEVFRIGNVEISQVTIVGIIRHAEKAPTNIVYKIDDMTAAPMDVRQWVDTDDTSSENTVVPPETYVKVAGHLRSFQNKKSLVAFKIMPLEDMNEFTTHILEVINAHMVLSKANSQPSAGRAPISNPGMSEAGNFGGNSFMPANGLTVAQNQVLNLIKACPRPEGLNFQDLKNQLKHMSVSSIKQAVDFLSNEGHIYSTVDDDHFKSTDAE
T1 sequence (P35244 whole entry, chain 3 of 3): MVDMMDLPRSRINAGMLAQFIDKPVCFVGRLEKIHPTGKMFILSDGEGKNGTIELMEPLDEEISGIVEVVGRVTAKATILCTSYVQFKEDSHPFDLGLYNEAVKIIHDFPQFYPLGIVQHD
T2 sequence (Q14191 whole entry E84A): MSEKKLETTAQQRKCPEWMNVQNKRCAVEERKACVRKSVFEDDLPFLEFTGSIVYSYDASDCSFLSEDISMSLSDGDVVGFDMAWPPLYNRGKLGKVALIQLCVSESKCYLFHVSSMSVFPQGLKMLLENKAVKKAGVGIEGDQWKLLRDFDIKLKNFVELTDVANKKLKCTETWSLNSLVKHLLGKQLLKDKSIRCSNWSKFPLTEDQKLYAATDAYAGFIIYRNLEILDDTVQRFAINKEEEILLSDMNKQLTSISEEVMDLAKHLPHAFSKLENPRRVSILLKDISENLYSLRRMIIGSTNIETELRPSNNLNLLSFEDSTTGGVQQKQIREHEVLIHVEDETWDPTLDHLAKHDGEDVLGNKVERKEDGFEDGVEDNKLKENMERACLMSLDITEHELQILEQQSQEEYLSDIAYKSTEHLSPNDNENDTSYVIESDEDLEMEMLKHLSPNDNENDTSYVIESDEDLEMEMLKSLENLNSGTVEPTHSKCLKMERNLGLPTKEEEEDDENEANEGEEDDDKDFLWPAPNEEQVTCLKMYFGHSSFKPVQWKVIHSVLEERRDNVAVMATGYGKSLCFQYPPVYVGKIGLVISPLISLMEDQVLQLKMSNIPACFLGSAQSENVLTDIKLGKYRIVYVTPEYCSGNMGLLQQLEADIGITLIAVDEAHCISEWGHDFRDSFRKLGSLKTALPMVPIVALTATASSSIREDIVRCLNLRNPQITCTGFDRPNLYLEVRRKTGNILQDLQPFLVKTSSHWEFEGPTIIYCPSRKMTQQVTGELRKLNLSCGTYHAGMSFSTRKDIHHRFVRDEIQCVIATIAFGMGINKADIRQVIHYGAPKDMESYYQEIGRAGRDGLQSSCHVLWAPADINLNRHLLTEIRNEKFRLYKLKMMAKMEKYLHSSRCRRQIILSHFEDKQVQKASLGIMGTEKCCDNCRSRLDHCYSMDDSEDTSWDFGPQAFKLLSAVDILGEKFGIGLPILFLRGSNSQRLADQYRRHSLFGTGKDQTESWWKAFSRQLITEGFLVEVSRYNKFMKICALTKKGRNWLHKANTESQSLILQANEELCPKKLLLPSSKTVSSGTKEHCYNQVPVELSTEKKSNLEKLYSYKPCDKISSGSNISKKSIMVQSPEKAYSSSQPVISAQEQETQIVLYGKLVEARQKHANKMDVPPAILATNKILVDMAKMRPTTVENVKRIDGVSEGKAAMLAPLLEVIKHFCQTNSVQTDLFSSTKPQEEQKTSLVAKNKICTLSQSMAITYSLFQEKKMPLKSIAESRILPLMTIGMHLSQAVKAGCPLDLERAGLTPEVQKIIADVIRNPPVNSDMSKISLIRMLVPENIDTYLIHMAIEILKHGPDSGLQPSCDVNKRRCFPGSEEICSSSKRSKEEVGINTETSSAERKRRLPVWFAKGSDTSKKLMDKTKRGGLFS

With TAAGTGAGTGTGAGGATACATGTAGGCAATTG (ssDNA) [ss32], the binding result in data set [1] is on record as “binds”.

B1: model replication fork, 32-nt leading gap (mixed)
DNA 1: CGTGACTTGATGTTAACCCTAACCCTAAGATATCGCGTTAAGTGAGTGTGAGGATACATGTAGGCAATTGCCACGTGTCTATCAGCTGAAGTTGTTCGCGACGTGCGATCGTCGCTGCGACG
DNA 2: CGTCGCAGCGACGATCGCACGTCGCGAACAACTTCAGCTGATAGACACGTGGCAATTGCCTACATGTATCCTCACACTCTGAATACGCGATATCTTAGGGTTAGGGTTAACATCAAGTCACG
DNA 3: CGTCGCAGCGACGATCGCACGTCGCGAACAACTTCAGCTGATAGACACGTGG
DNA 4: TCAGAGTGTGAGGATACATGTAGGCAATTGCCACGTGTCTATCAGCTGAAGTTGTTCGCGACGTGCGATCGTCGCTGCGACG
B1: the binding result in data set [2] and in data set [3] was “binds” throughout.

B2: gapped duplex, 32-nt gap (mixed)
DNA 1: B1 DNA 1
DNA 2: B1 DNA 3
DNA 3: ACGCGATATCTTAGGGTTAGGGTTAACATCAAGTCACG
In the case of B2, the binding result in data set [4] and in data set [5] was “binds” each time.

The values are drawn from paper PMC3030355.
